In the nanobody polyreactivity screen of Harvey et al. (2022):

Test: yeast display, Sf9 membrane polyspecificity reagent, FACS + sequencing; frameworks hold sequencing errors
Method in brief: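 Nanobodies came from a synthetic yeast display library in Saccharomyces cerevisiae BJ5465, induced with galactose for 36–48 hours and stained for 1 hour at 4 °C with 10% biotinylated, detergent-solubilized Sf9 membrane reagent. Cells were enriched on streptavidin microbeads and then FACS-sorted, with low and high (top ~1%) gates set on anti-HA fluorescence for expression and streptavidin fluorescence for reagent binding. Each polyreactivity label reflects the gate a clone came from. Genes were amplified by colony PCR, sequenced by MiSeq 2 × 250 and filtered by CDR length.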

Sequence | polyreactivity (PSR sort gate)
QVQLVESGGGLDQAGGSLRLSCAASGSTLGRYTMGWYRQAPGKERELVAAITRGGRTNYADSVKGRFTISRDNAKNTVYLQMNSLKPEDTAVYYCAKLYRYGDYDYWGQGTQVTVSS | high polyreactivity
QVQLVESGGGLDQAGGSLRLSCAASGSTLGYNAMGWYRQAPGKERVLVAAISRSGGITYYADSVKGRFTISRDTAKNTVYLQMNSLKPEDTAVYYCNAVDRTRYRPGNDYDYWGQGTQVTVSS | high polyreactivity
QVQLVESGGGLDQAGGSLRLSCAASGSTLGYNVMGWYRQAPGKERELVAAISGDGSTNYADSVKGRFTISRDNAKNTVYLQMNSLKPEDTAVYYCAARPGWFAGYEYWGQGTQVTVSS | low polyreactivity
QVQLVESGGGLDQAGGSLRLSCAASGTIFTFYTMGWYRQAPGKERELVAAINWSGSRTYYADSVKGRFTISRDNAKNTVYLQMNSLKPEDTAVYYCAAEHWFPSAPWYYSDLHYYWGQGTQVTVSS | high polyreactivity
QVQLVESGGGLDQAGGSLRLSCAASGYILPKNTMGWYRQAPGKERELVAAISWSGGSTFYADSVKGRFTISRDNAKNTVYLQMNSLKPEETAVYYCAADRSWSWYYRYDYWGQGTQVTVSS | low polyreactivity
QVQLVESGGGLDQAGGSLRLSCAASGYIVRNAMGWYRQAPWKERELVAAISRRGGSTYYADSVKGRFTISRDNAKNTVYLQMNSLKPEDTAVYYCAKDNVIPSFVADYYYWGQGTQVTVSS | high polyreactivity
QVQLVESGGGLDQAGGSLRLSCAASGYTFGRNAMGWYRQAPGKERELVATISQRGGSTYYADSVKGRFTISRDNANNTVYLQMNSLKPEDTAVYYCAAGPIYRYRRYYYWGQGTQVTVSS | high polyreactivity
QVQLVESGGGLDQAGGSLRLSCAAYGGTLYYNAMGWYRQAPGKEREFVAAISSRGGRTYYADSVKGRFTISRDNAKNTVYLQMNSLKPEDTAVYYCAGSRTGRTYPSNRMYYWGQGTQVSVSS | high polyreactivity
QVQLVESGGGLDQAGGSLRLSCAAYGRILHFYAMGWYRQAPGKERELVSAIRWSSGRTYYADSVKGRFTISRDNAKNTVYLQMNSLKPEDTAVYYCAANNGYGMDYWGQGTQVTVSS | high polyreactivity
QVQLVESGGGLDQAGGSLRLSCAPSGSIFKRNAMGWYRQAPGKARELVAAISKSSGSTYYADSVKGRFTISRDNAKNTVYLQMNSLKPEDYAVYYCAAKYYSYVDKYYYWGQGTQVTVSS | high polyreactivity
QVQLVESGGGLDQAGGSLRLSCASSGFTFGRYAMGWYRQAPGKERELVDTITRSGVNTYYADSVKGRFTISRDNAKNTVYLQMNSLKPEDTAVSYCNVRYPLATYRLPAGEFDYWGQGTQVTVSS | high polyreactivity
QVQLVESGGGLDQAGGSLRLSFAASGLIFAVYAMGWYRQAPGKERELVAGISASAASTYYADSVKGRFTISRDNAKNTVYLQMNSLKPEDTAVYYCAAGFYRRGKYDYWGQGTQVTVSS | high polyreactivity
QVQLVESGGGLDQAGGSLRLSFAASGSTFVPNVMGWYRQAPGKERELVASITSGGITNYADSVKGRFTISRDNAKNTVYLQMNSLKPEDTAVKGDYWGQGTQVTVSS | low polyreactivity
QVQLVESGGGLDQAGGSLRLSSAASGFIFWFNAMRWYRQAPGTERELVATISRSDTSTYYADSVKGRFTISRDNAKNSVYLQMNSLKPEDTAVYYCATDVRETWLPEYYWGQGTEVTVSS | low polyreactivity
QVQLVESGGGLDQAGGSLRLSSAASGLTFFSEYAMGLYRQPPGIERELVASIDWSGDSTYYADSVKGRFTISRDNAMKTVYLQMNSLKPEYTAVYYCAKDYSTEISQEYYYWVQGTQVTVSS | high polyreactivity
QVQLVESGGGLDQAGGSLRLSSAASGLTFVTYAMGWYRQAPGTERELVAAISYSGGSTYYADSVKGRFTISRDNAKNTVYLQMNSLKPEDTAVYYCNARSPQPDGRPPYNYWGQGTQVTVSS | high polyreactivity
QVQLVESGGGLDQAGGSLRLSSAASGSIFLPNAMGWYRQAPGKEREFVADISWTGGRTYYADSVKGRFTISRDNAKHTVYLQMNRLKQEDTAVYYCAAKQYRYGLDYWGQGTQVTVSS | high polyreactivity
QVQLVESGGGLDQAGGSLRLSWAASGITFGWYAKGWYRLAPGKERELVASISSSGSTNYADSVKGRLTISRDNAKNTVYLQMNSQKTEDTAVYYCNKDYLLRHFYIYVIEGDYWGQGTKVTVSS | low polyreactivity
QVQLVESGGGLDQAGGSLRLTCAASGFIIHRYAMAWYRQGPGTEMELVAAISRSGVSTNYADSVKGRFTISRDNPKNTVYLHMYSLKTEDTSVYYCASPYYSYQSYKYWGKGTQVTVSS | high polyreactivity
QVQLVESGGGLDQAGGSLRLTCAASGRTFSRNAMGWYRQAPGKERELVAAISGSGGTTYYADSVKGRFTISRDNAKNTVYLQMKSLKPEDTAVYYCAADLRYAWVFWYEYWGLGTQVTVSS | low polyreactivity
QVQLVESGGGLDQAGGSLRLTCAAYGSTFRYNAMGWYRQAHGKERELVAAIDKRGDSTYADSVKGSFTISRDNAKNTVYLQMNSMNPDDTAVYYCAADSDSKYYYGFLLDTYEYWGQATQVTVSS | low polyreactivity
QVQLVESGGGLDQAGGSLRSSCAASGRIFPSYAMGWYRQAPGKERELVAAISRSGGSTYYADSVKGRFTISRDNAKNTVDLQMICLKPEDTGVYYCAKQVYSGYSTRARSRYYEYYYWGQGNQVTVSS | high polyreactivity

Sequence | polyreactivity (PSR sort gate)
QVQLVESGGGLDQAGGTLRLSSAASGFTFGSYAMRWYRQAHGKERELVAAITRSGSTTYYADSVKGRFTISRDNAKNTFFLQMNSLKPEDTAVDYCNAYTVRSYRFDYWGQGTQVTVSS | high polyreactivity
QVQLVESGGGLDQARGSLRLSCAASGFTFNYYAMGWYRQAPGKERELVAAISSSGGSTYYADSVKGRFTISRDNAKNTVYLQMNSLKPDDTAVYYCAAPVLPGYNYWGQGTQVTVSS | high polyreactivity
QVQLVESGGGLDQARGSLRLSCAASGRTFSSNAMGWYRQAPWKERELVAAISSSGAGTYYADSVKGRFTISRDNAKNTVYLQMNSLKPEDTAVYYCAARANSYHSFTSHYDYWGQGTQVTVSS | low polyreactivity
QVQLVESGGGLDQARGSLRLSCAASGSTLALYTMGWNRQATGKETELVAAISKNGGRTYYADSVKGRFTISRDNAKNTVYLQMYSLKPEDTAVYYCAAASGSYRGYDFWGQGSQVTVSS | high polyreactivity
QVQLVESGGGLDQAVGSLPLSCAASGRTFYLNTRGWYREAPWKEREFVAAISATAGRTYYADSVKGRFTISRDNAKNTVYLQMYSLKPEDTAVYYCAAVPLRIRWPNSSPALDYWGQGTQVTVSS | high polyreactivity
QVQLVESGGGLDQAVGSLRLSSAASGTTFDKNDMGLYRQAPAKERELVAAISGGSTNYADSVKGRFTISRDNAKNTVYLQMNSLKPEDTAVYYCAARPHAHSDYWGQGTQVTVSS | low polyreactivity
QVQLVESGGGLEQAGGRLRLSCAASGFTFDFYAMGWYRQAPGKERQLVAAISKNDGTTYYADSVKGRFTISRDNAKNTVYLQMNSLKPEDTAVYYCAAESGYPVYTYVSSGDYWGQGTQVTVSS | low polyreactivity
QVQLVESGGGLFHAGGSLRLSCAASGSIFVRNVMGGYRQAPGKERELVAAISRSGVSTYYADSVKGRFTISRDNAKNTVSLQMNSLKPEDTAVSYCNAGWRRRNSTGYPWGYDYWGQGTQVTVSS | high polyreactivity
QVQLVESGGGLFKAGGSLRLSCAASGLIFWGYTMAWSRQAPGKERELVAAISRRGGRTYYAASVMGRFTISRDNAKNTVYLQMNTLKPEDTAVDYCKADITSSGPKSDYWGQGTQVTVSS | high polyreactivity
QVQLVESGGGLFKAGGSLRLSCAASGRTFRGYTMGWYRQAPGKERELVAAITSGTRTNYADSVKGRFTISRDNAKNTVYLQMNSLKPEYTAVYYGAARDYIRPRYRPYDYWGHGTQVTVSS | high polyreactivity
QVQLVESGGGLFKEGGSLRLSCAASASYFWFNAMGWYRQAPGKEREFGASISRSGGTTYYADSVKGRFTISRDNAKNTVYLQMKSVIPEDTAVYYCNARAFGTGVGTGYFGKDRYDYWGQGSQVTVSS | low polyreactivity
QVQLVESGGGLFQAGGILRLSCAASGYTFPDYAMGWYRQAPGKEREFVATISWSGTSTYYADSVKGRFTISRDNAKNTVYLQMNSLTTEDTAVYYCNKTPSSWPDLYSYNYWGQGTQVTVSS | low polyreactivity
QVQLVESGGGLFQAGGRLRLSCAPSGSNFVGYVMGWYRQAPGKERELVARIRWGGGRTYYADSVKGRFTISRDNAKNTVYLQMNSLKPEDTAVYFCAAETWWRTRIYDYWGQGTQGTVSS | high polyreactivity
QVQLVESGGGLFQAGGSHRLSCAASGRIFPSYAMGWYRQAPGTQRELVAAIPRGGASTYYADSVKGRFTISRDIAQNTVYLQMNSLKPEDTAVYYCAARRSYTYGRDYWGQGTQVTVSS | high polyreactivity
QVQLVESGGGLFQAGGSLRISCAASGRTFSYYAMGWYRQAPVKERELVAAISWSGVITYYADSVKGRFTISRDNAKNTVYLQMNSMKPEDTAVYYCASRPYWSEFDYDYWGQGTQVTLSS | low polyreactivity
QVQLVESGGGLFQAGGSLRLICAASGITFEYNTMGWYRQAAGKERELVAAITSDGGSTYYADSVKGRFSISRDNAKNTVYLQMNSLKPEDTAVYYFAAVFYDQYYYWGQGTQVTVSS | high polyreactivity
QVQLVESGGGLFQAGGSLRLICAASGLIINGNAMGWYRQAPGKERELVADITGSSVRTYYADSVKGRFTISRDNAKNTVYLQMNSLKPEDTAVYYCAKDPDKVDYVDMDYWGQGTQVTVSS | low polyreactivity
QVQLVESGGGLFQAGGSLRLSCAASGRIFGSYAMGWYRQAPGKERELVAAIFSAGSTYYADSVKGRFTISRDNAKNTVYLQMNSLKPEDTAVYYCAAGAYWPWGEDYWGQATQVTVSS | high polyreactivity
QVQLVESGGGLFQAGGSLRLSCAASGRIFHGYDMGWYRQAPGKERELVAAITWRGGSTYADSVKGRFTISRDNGKNTVYLQMNSLKPEDTAVYYCAADTVYYGYFFYYWGQVTQVTVSS | high polyreactivity
QVQLVESGGGLFQAGGSLRLSCAASGRTFCFYTMGWYRQAPGKASELVAAISSGGSTNYADSVKGRFTISRDNAKNTVYLQMNSLKPEDTAVYYCNARFPVCPSEDAVWYYPKFDYWGQGTQVTVSW | low polyreactivity
QVQLVESGGGLFQAGGSLRLSCAASGRTFCPYTMGWYRQAPGKERELVAVISSNDGSTDYADSVKGRFTFSRDNAKNTVYLQMNSLKPEDTAVYYCAAEVYFGYYGGYGYWGQGTQVTVSS | low polyreactivity
